From patent EP4663654A1 (Hangzhou Sciwind Biosciences Co., Ltd., dated 2025)
Starred links: 1 amine or outer side, 2 acyl side, 3 side chain; linkers in the order of their positions; H or OH if unused. Non-standard residues stand in square brackets, D forms with d. Primed or numbered codes have the meaning given here. *: point of attachment. C20 diacid = O=C(O)CCCCCCCCCCCCCCCCCCC(=O)*; γGlu = O=C(O)[C@H](CCC(=O)[*:2])N[*:1]; βAsp = O=C(O)[C@H](CC(=O)[*:2])N[*:1]; Hyp = O=C(O)[C@@H]1C[C@@H](O)CN1; Inp′ = not defined here; Trx′ = not defined here; AEEA = NCCOCCOCC(=O)O

B1: polypeptide derivative M17 (peptide)
peptide: {C20 diacid}-E[AEEA][AEEA]ASQLSTAATQRLADFLRHFTDRDRDILPPTNVGSNTP-NH2
SMILES: CC[C@H](C)[C@H](NC(=O)[C@H](CC(=O)O)NC(=O)[C@H](CCCNC(=N)N)NC(=O)[C@H](CC(=O)O)NC(=O)[C@H](CCCNC(=N)N)NC(=O)[C@H](CC(=O)O)NC(=O)[C@@H](NC(=O)[C@H](Cc1ccccc1)NC(=O)[C@H](Cc1c[nH]cn1)NC(=O)[C@H](CCCNC(=N)N)NC(=O)[C@H](CC(C)C)NC(=O)[C@H](Cc1ccccc1)NC(=O)[C@H](CC(=O)O)NC(=O)[C@H](C)NC(=O)[C@H](CC(C)C)NC(=O)[C@H](CCCNC(=N)N)NC(=O)[C@H](CCC(N)=O)NC(=O)[C@@H](NC(=O)[C@H](C)NC(=O)[C@H](C)NC(=O)[C@@H](NC(=O)[C@H](CO)NC(=O)[C@H](CC(C)C)NC(=O)[C@H](CCC(N)=O)NC(=O)[C@H](CO)NC(=O)[C@H](C)NC(=O)COCCOCCNC(=O)COCCOCCNC(=O)[C@H](CCC(=O)O)NC(=O)CCCCCCCCCCCCCCCCCCC(=O)O)[C@@H](C)O)[C@@H](C)O)[C@@H](C)O)C(=O)N[C@@H](CC(C)C)C(=O)N1CCC[C@H]1C(=O)N1CCC[C@H]1C(=O)N[C@H](C(=O)N[C@@H](CC(N)=O)C(=O)N[C@H](C(=O)NCC(=O)N[C@@H](CO)C(=O)N[C@@H](CC(N)=O)C(=O)N[C@H](C(=O)N1CCC[C@H]1C(N)=O)[C@@H](C)O)C(C)C)[C@@H](C)O
B2: polypeptide derivative M18 (peptide)
peptide: {C20 diacid-βAsp-AEEA-AEEA}-ASQLSTAATQRLADFLRHFTDRDRDILPPTNVGSNTP-NH2
SMILES: CC[C@H](C)[C@H](NC(=O)[C@H](CC(=O)O)NC(=O)[C@H](CCCNC(=N)N)NC(=O)[C@H](CC(=O)O)NC(=O)[C@H](CCCNC(=N)N)NC(=O)[C@H](CC(=O)O)NC(=O)[C@@H](NC(=O)[C@H](Cc1ccccc1)NC(=O)[C@H](Cc1c[nH]cn1)NC(=O)[C@H](CCCNC(=N)N)NC(=O)[C@H](CC(C)C)NC(=O)[C@H](Cc1ccccc1)NC(=O)[C@H](CC(=O)O)NC(=O)[C@H](C)NC(=O)[C@H](CC(C)C)NC(=O)[C@H](CCCNC(=N)N)NC(=O)[C@H](CCC(N)=O)NC(=O)[C@@H](NC(=O)[C@H](C)NC(=O)[C@H](C)NC(=O)[C@@H](NC(=O)[C@H](CO)NC(=O)[C@H](CC(C)C)NC(=O)[C@H](CCC(N)=O)NC(=O)[C@H](CO)NC(=O)[C@H](C)NC(=O)COCCOCCNC(=O)COCCOCCNC(=O)C[C@H](NC(=O)CCCCCCCCCCCCCCCCCCC(=O)O)C(=O)O)[C@@H](C)O)[C@@H](C)O)[C@@H](C)O)C(=O)N[C@@H](CC(C)C)C(=O)N1CCC[C@H]1C(=O)N1CCC[C@H]1C(=O)N[C@H](C(=O)N[C@@H](CC(N)=O)C(=O)N[C@H](C(=O)NCC(=O)N[C@@H](CO)C(=O)N[C@@H](CC(N)=O)C(=O)N[C@H](C(=O)N1CCC[C@H]1C(N)=O)[C@@H](C)O)C(C)C)[C@@H](C)O
B3: polypeptide derivative M16 (peptide)
peptide: {C20 diacid-γGlu-AEEA-AEEA}-ASQLSTAATQRLADFLRHFTDRDRDILPPTNVGSNTP-NH2
SMILES: CC[C@H](C)[C@H](NC(=O)[C@H](CC(=O)O)NC(=O)[C@H](CCCNC(=N)N)NC(=O)[C@H](CC(=O)O)NC(=O)[C@H](CCCNC(=N)N)NC(=O)[C@H](CC(=O)O)NC(=O)[C@@H](NC(=O)[C@H](Cc1ccccc1)NC(=O)[C@H](Cc1c[nH]cn1)NC(=O)[C@H](CCCNC(=N)N)NC(=O)[C@H](CC(C)C)NC(=O)[C@H](Cc1ccccc1)NC(=O)[C@H](CC(=O)O)NC(=O)[C@H](C)NC(=O)[C@H](CC(C)C)NC(=O)[C@H](CCCNC(=N)N)NC(=O)[C@H](CCC(N)=O)NC(=O)[C@@H](NC(=O)[C@H](C)NC(=O)[C@H](C)NC(=O)[C@@H](NC(=O)[C@H](CO)NC(=O)[C@H](CC(C)C)NC(=O)[C@H](CCC(N)=O)NC(=O)[C@H](CO)NC(=O)[C@H](C)NC(=O)COCCOCCNC(=O)COCCOCCNC(=O)CC[C@H](NC(=O)CCCCCCCCCCCCCCCCCCC(=O)O)C(=O)O)[C@@H](C)O)[C@@H](C)O)[C@@H](C)O)C(=O)N[C@@H](CC(C)C)C(=O)N1CCC[C@H]1C(=O)N1CCC[C@H]1C(=O)N[C@H](C(=O)N[C@@H](CC(N)=O)C(=O)N[C@H](C(=O)NCC(=O)N[C@@H](CO)C(=O)N[C@@H](CC(N)=O)C(=O)N[C@H](C(=O)N1CCC[C@H]1C(N)=O)[C@@H](C)O)C(C)C)[C@@H](C)O
B4: polypeptide derivative M19 (peptide)
peptide: {C20 diacid}-D[AEEA][AEEA]ASQLSTAATQRLADFLRHFTDRDRDILPPTNVGSNTP-NH2
SMILES: CC[C@H](C)[C@H](NC(=O)[C@H](CC(=O)O)NC(=O)[C@H](CCCNC(=N)N)NC(=O)[C@H](CC(=O)O)NC(=O)[C@H](CCCNC(=N)N)NC(=O)[C@H](CC(=O)O)NC(=O)[C@@H](NC(=O)[C@H](Cc1ccccc1)NC(=O)[C@H](Cc1c[nH]cn1)NC(=O)[C@H](CCCNC(=N)N)NC(=O)[C@H](CC(C)C)NC(=O)[C@H](Cc1ccccc1)NC(=O)[C@H](CC(=O)O)NC(=O)[C@H](C)NC(=O)[C@H](CC(C)C)NC(=O)[C@H](CCCNC(=N)N)NC(=O)[C@H](CCC(N)=O)NC(=O)[C@@H](NC(=O)[C@H](C)NC(=O)[C@H](C)NC(=O)[C@@H](NC(=O)[C@H](CO)NC(=O)[C@H](CC(C)C)NC(=O)[C@H](CCC(N)=O)NC(=O)[C@H](CO)NC(=O)[C@H](C)NC(=O)COCCOCCNC(=O)COCCOCCNC(=O)[C@H](CC(=O)O)NC(=O)CCCCCCCCCCCCCCCCCCC(=O)O)[C@@H](C)O)[C@@H](C)O)[C@@H](C)O)C(=O)N[C@@H](CC(C)C)C(=O)N1CCC[C@H]1C(=O)N1CCC[C@H]1C(=O)N[C@H](C(=O)N[C@@H](CC(N)=O)C(=O)N[C@H](C(=O)NCC(=O)N[C@@H](CO)C(=O)N[C@@H](CC(N)=O)C(=O)N[C@H](C(=O)N1CCC[C@H]1C(N)=O)[C@@H](C)O)C(C)C)[C@@H](C)O
B5: polypeptide derivative M2 (peptide)
peptide: {C20 diacid-γGlu}-ASQLSTAVLGRLADFLRHSSNNLKPILPPTNVGSNT[Hyp]-NH2
SMILES: CC[C@H](C)[C@H](NC(=O)[C@@H]1CCCN1C(=O)[C@H](CCCCN)NC(=O)[C@H](CC(C)C)NC(=O)[C@H](CC(N)=O)NC(=O)[C@H](CC(N)=O)NC(=O)[C@H](CO)NC(=O)[C@H](CO)NC(=O)[C@H](Cc1c[nH]cn1)NC(=O)[C@H](CCCNC(=N)N)NC(=O)[C@H](CC(C)C)NC(=O)[C@H](Cc1ccccc1)NC(=O)[C@H](CC(=O)O)NC(=O)[C@H](C)NC(=O)[C@H](CC(C)C)NC(=O)[C@H](CCCNC(=N)N)NC(=O)CNC(=O)[C@H](CC(C)C)NC(=O)[C@@H](NC(=O)[C@H](C)NC(=O)[C@@H](NC(=O)[C@H](CO)NC(=O)[C@H](CC(C)C)NC(=O)[C@H](CCC(N)=O)NC(=O)[C@H](CO)NC(=O)[C@H](C)NC(=O)CC[C@H](NC(=O)CCCCCCCCCCCCCCCCCCC(=O)O)C(=O)O)[C@@H](C)O)C(C)C)C(=O)N[C@@H](CC(C)C)C(=O)N1CCC[C@H]1C(=O)N1CCC[C@H]1C(=O)N[C@H](C(=O)N[C@@H](CC(N)=O)C(=O)N[C@H](C(=O)NCC(=O)N[C@@H](CO)C(=O)N[C@@H](CC(N)=O)C(=O)N[C@H](C(=O)N1C[C@H](O)C[C@H]1C(N)=O)[C@@H](C)O)C(C)C)[C@@H](C)O

target: T1, human amylin receptor (AMY3) on CHO-K1/Ga15/AMY3 amylin receptor/CRE-luc cells (human, UniProt P30988 25-474; O60896 24-148); test: cell-based or functional assay
T1 sequence (looked up) 1: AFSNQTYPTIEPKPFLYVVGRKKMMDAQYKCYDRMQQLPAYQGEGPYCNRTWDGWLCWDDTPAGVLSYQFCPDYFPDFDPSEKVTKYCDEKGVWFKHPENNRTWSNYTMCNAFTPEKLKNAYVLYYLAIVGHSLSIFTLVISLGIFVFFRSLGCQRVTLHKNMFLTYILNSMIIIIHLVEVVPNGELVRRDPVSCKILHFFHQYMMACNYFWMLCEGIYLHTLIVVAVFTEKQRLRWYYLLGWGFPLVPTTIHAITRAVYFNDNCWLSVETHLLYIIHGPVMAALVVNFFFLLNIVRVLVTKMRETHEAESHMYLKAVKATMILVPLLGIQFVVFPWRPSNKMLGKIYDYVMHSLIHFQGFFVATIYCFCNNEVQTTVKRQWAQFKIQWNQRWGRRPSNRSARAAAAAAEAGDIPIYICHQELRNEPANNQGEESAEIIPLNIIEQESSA
T1 sequence (looked up) 2: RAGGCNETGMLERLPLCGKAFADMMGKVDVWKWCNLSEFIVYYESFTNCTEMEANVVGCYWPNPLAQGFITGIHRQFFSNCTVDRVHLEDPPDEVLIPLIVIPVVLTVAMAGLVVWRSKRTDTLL

Binder | EC50/nM, CRE-luciferase reporter in amylin receptor/CRE-luc CHO cells [nM] | Relative activity (the EC50 ratio of Cagrilintide to the compound) [%]
{C20 diacid-Inp′-AEEA-AEEA}-ASQLSTAATQRLADFLRHFTDRDRDILPPTNVGSNTP-NH2 [polypeptide derivative M21] | 0.023 | 126
B1 | 0.026 | 94
{C20 diacid-Trx′}-ASQLSTAATQRLADFLRHFTDRDRDILPPTNVGSNTP-NH2 (reading uncertain) [polypeptide derivative M14] | 0.018 | 136
B2 | 0.026 | 110
B3 | 0.042 | 58
{C20 diacid-Inp′}-ASQLSTAATQRLADFLRHFTDRDRDILPPTNVGSNTP-NH2 [polypeptide derivative M15] | 0.03 | 81
{C20 diacid-Trx′-AEEA-AEEA}-ASQLSTAATQRLADFLRHFTDRDRDILPPTNVGSNTP-NH2 (reading uncertain) [polypeptide derivative M20] | 0.017 | 171
B4 | 0.036 | 80
B5 | 0.038 | 68
